Measured values as given in publication PMC4176358.

Each sequence was assayed against T1, VqsMt (truncated VqsM) (Pseudomonas aeruginosa PAO1) (UniProt Q9I1P2) (assay: EMSA). Settings: 20 mM Tris-HCl pH 7.4, 50 mM KCl, 5 mM MgCl2, 10% glycerol, 3 ug/ml sheared salmon sperm DNA; room temperature 20 min; DNA 40-50 nM (footprint DNase I at 25 C).
T1 sequence: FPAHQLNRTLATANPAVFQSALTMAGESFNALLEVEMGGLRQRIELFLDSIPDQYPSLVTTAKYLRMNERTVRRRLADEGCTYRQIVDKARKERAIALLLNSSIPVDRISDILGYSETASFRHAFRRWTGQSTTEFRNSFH

Row | Sequence | binding
1 | AAAAAGCCTCCGTCATTCCTCATTGCAGTAAGCCCTGATCGATAAAATGCATCACAGCAGAATTGGCCCGGGGTATGACGCTGTCAAGCGCGCAGCCTTGCCGATACGGCAAAATCATGGCAACCCTATCTGTTATGCCAGCACCGTTCAGGACGCAGCCTTCAGCCATCGAGCATCCCCCTCCCTATGACAACGTTCGACCACCTGGGCCGCTTTACCGCAAGCGATACTGTGCGGTTGTGACAATTCCATGAAACGC (double strand) [rhlR promoter] | no binding
2 | AAAAGGCGGCATCCCTACCCTGATACTCCTGGGCCCTCTCAGTCGGAGGACATACCAGCACACACATGAGGGGGAAGACTAAAGGAGGATGAACGGCAGGCAACCTGCCAGATCTGGTAGGGCGCGCCGACCGGCGCGCCCTGCGCTTCAGATGAGACCCAGCGCCGCGGCGTAGGCGGCAGCCAGCGTCTTGTTCGGCGCGTCGAACTTCTTCTGGATGTTC (double strand) [rhlI promoter] | no binding
3 | TAAAGATGGACGCTGGTTTGCGCAGCCCATGCACTGTCCGCCGCTGTCGCACCGATCGTCGTCAGGATCGATAACGCCAGTGCACAAACTTTTTTCATTGGATTTCCTTTCCGAAACGAAACAAGTTGGATTTTGCACCTACCAGAACTGGTAGTTCTGACCTGTGGCTATCTTCGAAGGCATCGATATTATGCACATTGGAACTCTTCATGACATAACGCCGAGTGACT (double strand) [vqsR promoter] | no binding
